Measurements taken from article PMC12416549 (2024).

B1: V55N (designed binder)
chain: MTLQELLREEALRRAEAEAFRYALELLAEKFPEQKEYLLDLAEEIESQIRSLSGNDVEDVRKFLDKEWAWVKELLAEHPAELAEVEAARAARLAELRAEVEAKVAA
B2: G54T (designed binder)
chain: MTLQELLREEALRRAEAEAFRYALELLAEKFPEQKEYLLDLAEEIESQIRSLSTVDVEDVRKFLDKEWAWVKELLAEHPAELAEVEAARAARLAELRAEVEAKVAA
B3: V104Q (designed binder)
chain: MTLQELLREEALRRAEAEAFRYALELLAEKFPEQKEYLLDLAEEIESQIRSLSGVDVEDVRKFLDKEWAWVKELLAEHPAELAEVEAARAARLAELRAEVEAKQAA
B4: L26M (designed binder)
chain: MTLQELLREEALRRAEAEAFRYALEMLAEKFPEQKEYLLDLAEEIESQIRSLSGVDVEDVRKFLDKEWAWVKELLAEHPAELAEVEAARAARLAELRAEVEAKVAA
B5: L12C (designed binder)
chain: MTLQELLREEACRRAEAEAFRYALELLAEKFPEQKEYLLDLAEEIESQIRSLSGVDVEDVRKFLDKEWAWVKELLAEHPAELAEVEAARAARLAELRAEVEAKVAA
B6: F31A (designed binder)
chain: MTLQELLREEALRRAEAEAFRYALELLAEKAPEQKEYLLDLAEEIESQIRSLSGVDVEDVRKFLDKEWAWVKELLAEHPAELAEVEAARAARLAELRAEVEAKVAA
B7: F20M (designed binder)
chain: MTLQELLREEALRRAEAEAMRYALELLAEKFPEQKEYLLDLAEEIESQIRSLSGVDVEDVRKFLDKEWAWVKELLAEHPAELAEVEAARAARLAELRAEVEAKVAA
B8: W70Y (designed binder)
chain: MTLQELLREEALRRAEAEAFRYALELLAEKFPEQKEYLLDLAEEIESQIRSLSGVDVEDVRKFLDKEWAYVKELLAEHPAELAEVEAARAARLAELRAEVEAKVAA
B9: L96Q (designed binder)
chain: MTLQELLREEALRRAEAEAFRYALELLAEKFPEQKEYLLDLAEEIESQIRSLSGVDVEDVRKFLDKEWAWVKELLAEHPAELAEVEAARAARLAEQRAEVEAKVAA
B10: R14K (designed binder)
chain: MTLQELLREEALRKAEAEAFRYALELLAEKFPEQKEYLLDLAEEIESQIRSLSGVDVEDVRKFLDKEWAWVKELLAEHPAELAEVEAARAARLAELRAEVEAKVAA
B11: F63D (designed binder)
chain: MTLQELLREEALRRAEAEAFRYALELLAEKFPEQKEYLLDLAEEIESQIRSLSGVDVEDVRKDLDKEWAWVKELLAEHPAELAEVEAARAARLAELRAEVEAKVAA
B12: A94T (designed binder)
chain: MTLQELLREEALRRAEAEAFRYALELLAEKFPEQKEYLLDLAEEIESQIRSLSGVDVEDVRKFLDKEWAWVKELLAEHPAELAEVEAARAARLTELRAEVEAKVAA
B13: F31Q (designed binder)
chain: MTLQELLREEALRRAEAEAFRYALELLAEKQPEQKEYLLDLAEEIESQIRSLSGVDVEDVRKFLDKEWAWVKELLAEHPAELAEVEAARAARLAELRAEVEAKVAA
B14: H78C (designed binder)
chain: MTLQELLREEALRRAEAEAFRYALELLAEKFPEQKEYLLDLAEEIESQIRSLSGVDVEDVRKFLDKEWAWVKELLAECPAELAEVEAARAARLAELRAEVEAKVAA
B15: W70H (designed binder)
chain: MTLQELLREEALRRAEAEAFRYALELLAEKFPEQKEYLLDLAEEIESQIRSLSGVDVEDVRKFLDKEWAHVKELLAEHPAELAEVEAARAARLAELRAEVEAKVAA
B16: V55E (designed binder)
chain: MTLQELLREEALRRAEAEAFRYALELLAEKFPEQKEYLLDLAEEIESQIRSLSGEDVEDVRKFLDKEWAWVKELLAEHPAELAEVEAARAARLAELRAEVEAKVAA
B17: A83C (designed binder)
chain: MTLQELLREEALRRAEAEAFRYALELLAEKFPEQKEYLLDLAEEIESQIRSLSGVDVEDVRKFLDKEWAWVKELLAEHPAELCEVEAARAARLAELRAEVEAKVAA
B18: A42W (designed binder)
chain: MTLQELLREEALRRAEAEAFRYALELLAEKFPEQKEYLLDLWEEIESQIRSLSGVDVEDVRKFLDKEWAWVKELLAEHPAELAEVEAARAARLAELRAEVEAKVAA
B19: V85P (designed binder)
chain: MTLQELLREEALRRAEAEAFRYALELLAEKFPEQKEYLLDLAEEIESQIRSLSGVDVEDVRKFLDKEWAWVKELLAEHPAELAEPEAARAARLAELRAEVEAKVAA
B20: W70K (designed binder)
chain: MTLQELLREEALRRAEAEAFRYALELLAEKFPEQKEYLLDLAEEIESQIRSLSGVDVEDVRKFLDKEWAKVKELLAEHPAELAEVEAARAARLAELRAEVEAKVAA
B21: A105K (designed binder)
chain: MTLQELLREEALRRAEAEAFRYALELLAEKFPEQKEYLLDLAEEIESQIRSLSGVDVEDVRKFLDKEWAWVKELLAEHPAELAEVEAARAARLAELRAEVEAKVKA
B22: E10K (designed binder)
chain: MTLQELLREKALRRAEAEAFRYALELLAEKFPEQKEYLLDLAEEIESQIRSLSGVDVEDVRKFLDKEWAWVKELLAEHPAELAEVEAARAARLAELRAEVEAKVAA
B23: E9F (designed binder)
chain: MTLQELLRFEALRRAEAEAFRYALELLAEKFPEQKEYLLDLAEEIESQIRSLSGVDVEDVRKFLDKEWAWVKELLAEHPAELAEVEAARAARLAELRAEVEAKVAA
B24: E67R (designed binder)
chain: MTLQELLREEALRRAEAEAFRYALELLAEKFPEQKEYLLDLAEEIESQIRSLSGVDVEDVRKFLDKRWAWVKELLAEHPAELAEVEAARAARLAELRAEVEAKVAA
B25: P32V (designed binder)
chain: MTLQELLREEALRRAEAEAFRYALELLAEKFVEQKEYLLDLAEEIESQIRSLSGVDVEDVRKFLDKEWAWVKELLAEHPAELAEVEAARAARLAELRAEVEAKVAA
B26: L41G (designed binder)
chain: MTLQELLREEALRRAEAEAFRYALELLAEKFPEQKEYLLDGAEEIESQIRSLSGVDVEDVRKFLDKEWAWVKELLAEHPAELAEVEAARAARLAELRAEVEAKVAA
B27: A28Y (designed binder)
chain: MTLQELLREEALRRAEAEAFRYALELLYEKFPEQKEYLLDLAEEIESQIRSLSGVDVEDVRKFLDKEWAWVKELLAEHPAELAEVEAARAARLAELRAEVEAKVAA
B28: A11I (designed binder)
chain: MTLQELLREEILRRAEAEAFRYALELLAEKFPEQKEYLLDLAEEIESQIRSLSGVDVEDVRKFLDKEWAWVKELLAEHPAELAEVEAARAARLAELRAEVEAKVAA
B29: E73G (designed binder)
chain: MTLQELLREEALRRAEAEAFRYALELLAEKFPEQKEYLLDLAEEIESQIRSLSGVDVEDVRKFLDKEWAWVKGLLAEHPAELAEVEAARAARLAELRAEVEAKVAA
B30: W70T (designed binder)
chain: MTLQELLREEALRRAEAEAFRYALELLAEKFPEQKEYLLDLAEEIESQIRSLSGVDVEDVRKFLDKEWATVKELLAEHPAELAEVEAARAARLAELRAEVEAKVAA
B31: E101H (designed binder)
chain: MTLQELLREEALRRAEAEAFRYALELLAEKFPEQKEYLLDLAEEIESQIRSLSGVDVEDVRKFLDKEWAWVKELLAEHPAELAEVEAARAARLAELRAEVHAKVAA
B32: W70D (designed binder)
chain: MTLQELLREEALRRAEAEAFRYALELLAEKFPEQKEYLLDLAEEIESQIRSLSGVDVEDVRKFLDKEWADVKELLAEHPAELAEVEAARAARLAELRAEVEAKVAA
B33: A15E (designed binder)
chain: MTLQELLREEALRREEAEAFRYALELLAEKFPEQKEYLLDLAEEIESQIRSLSGVDVEDVRKFLDKEWAWVKELLAEHPAELAEVEAARAARLAELRAEVEAKVAA
B34: E36V (designed binder)
chain: MTLQELLREEALRRAEAEAFRYALELLAEKFPEQKVYLLDLAEEIESQIRSLSGVDVEDVRKFLDKEWAWVKELLAEHPAELAEVEAARAARLAELRAEVEAKVAA
B35: Q34T (designed binder)
chain: MTLQELLREEALRRAEAEAFRYALELLAEKFPETKEYLLDLAEEIESQIRSLSGVDVEDVRKFLDKEWAWVKELLAEHPAELAEVEAARAARLAELRAEVEAKVAA

Target: T1, TNFR1 (Homo sapiens, UniProt P19438)
T1 chain: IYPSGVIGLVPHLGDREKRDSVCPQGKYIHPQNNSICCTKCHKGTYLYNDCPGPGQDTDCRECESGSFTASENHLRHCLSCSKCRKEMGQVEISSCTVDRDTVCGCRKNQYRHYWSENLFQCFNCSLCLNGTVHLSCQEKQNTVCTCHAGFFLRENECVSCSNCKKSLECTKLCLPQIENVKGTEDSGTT
Test: yeast display SC50

Binder	apparent Kd (screen)
B1	0.956 nM
B2	0.446 nM
B3	0.49 nM
B4	0.593 nM
B5	0.79 nM
B6	0.49 nM
B7	0.869 nM
B8	1.86 nM
B9	0.539 nM
B10	0.49 nM
B11	7.07 nM
B12	0.539 nM
B13	0.653 nM
B14	0.593 nM
B15	12.5 nM
B16	15.2 nM
B17	0.869 nM
B18	4.83 nM

Binder	apparent Kd (screen)
B19	2.25 nM
B20	5.84 nM
B21	0.869 nM
B22	8.56 nM
B23	0.49 nM
B24	8.56 nM
B25	0.593 nM
B26	12.5 nM
B27	22.2 nM
B28	0.368 nM
B29	0.718 nM
B30	29.5 nM
B31	0.718 nM
B32	12.5 nM
B33	0.718 nM
B34	1.05 nM
B35	0.539 nM
